Data from patent US20210040228.

System: D11-CD8stk-IL2Rg_A5-Hinge-IL2Rb
Sequence (chain, as listed by the source, chain 1 of 2): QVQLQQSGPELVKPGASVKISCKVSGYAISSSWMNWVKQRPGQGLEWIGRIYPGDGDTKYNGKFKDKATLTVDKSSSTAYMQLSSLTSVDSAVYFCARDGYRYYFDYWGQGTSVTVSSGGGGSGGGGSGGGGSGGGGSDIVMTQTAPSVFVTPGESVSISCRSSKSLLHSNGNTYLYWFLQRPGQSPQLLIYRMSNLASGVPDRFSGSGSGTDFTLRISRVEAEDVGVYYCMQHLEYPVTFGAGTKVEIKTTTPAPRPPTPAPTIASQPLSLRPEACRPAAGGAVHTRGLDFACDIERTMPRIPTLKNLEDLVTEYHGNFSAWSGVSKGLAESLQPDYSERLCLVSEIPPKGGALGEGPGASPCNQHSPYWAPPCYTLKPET
Sequence (chain, as listed by the source, chain 2 of 2): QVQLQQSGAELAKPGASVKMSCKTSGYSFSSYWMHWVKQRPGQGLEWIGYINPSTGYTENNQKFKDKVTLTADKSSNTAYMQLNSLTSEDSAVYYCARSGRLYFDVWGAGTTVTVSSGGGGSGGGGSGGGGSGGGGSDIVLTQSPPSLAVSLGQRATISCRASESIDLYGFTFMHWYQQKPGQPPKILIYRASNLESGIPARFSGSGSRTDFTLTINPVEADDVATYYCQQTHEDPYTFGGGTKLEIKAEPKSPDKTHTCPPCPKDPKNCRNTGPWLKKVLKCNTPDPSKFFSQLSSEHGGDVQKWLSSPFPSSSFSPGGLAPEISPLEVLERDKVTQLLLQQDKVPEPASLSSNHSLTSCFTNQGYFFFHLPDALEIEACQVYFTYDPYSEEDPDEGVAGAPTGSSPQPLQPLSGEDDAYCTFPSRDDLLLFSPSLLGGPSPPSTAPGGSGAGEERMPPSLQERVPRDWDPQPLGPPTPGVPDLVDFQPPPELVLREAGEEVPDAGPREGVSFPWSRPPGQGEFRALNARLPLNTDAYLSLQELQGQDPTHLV

prostate-specific antigen (PSA)
phosphorylation of Y694 of STAT5 (phosphoflow), 500 ng/mL PSA for 1 or 4 hours: In the cells expressing the PSA CCR, the presence of PSA lead to increasing STAT5 phosphorylation with time
